This is an account of results in publication PMC8171356 (Nature structural & molecular biology, 2017).

Broadly, the stoichiometry N is the number of molecules, sites or subunits per partner or assembly.

Substitutions are numbered along the chain they refer to. Names may count otherwise. Ends that are not written are not given here. * marks the point of attachment. βGlcNAc = CC(=O)N[C@@H]1[C@@H](O)[C@H](O)[C@@H](CO)O[C@H]1*

The chains are these.
T1: full-length human O-GlcNAcase (hOGA) (human, UniProt O60502 1-916)
T1 sequence (looked up): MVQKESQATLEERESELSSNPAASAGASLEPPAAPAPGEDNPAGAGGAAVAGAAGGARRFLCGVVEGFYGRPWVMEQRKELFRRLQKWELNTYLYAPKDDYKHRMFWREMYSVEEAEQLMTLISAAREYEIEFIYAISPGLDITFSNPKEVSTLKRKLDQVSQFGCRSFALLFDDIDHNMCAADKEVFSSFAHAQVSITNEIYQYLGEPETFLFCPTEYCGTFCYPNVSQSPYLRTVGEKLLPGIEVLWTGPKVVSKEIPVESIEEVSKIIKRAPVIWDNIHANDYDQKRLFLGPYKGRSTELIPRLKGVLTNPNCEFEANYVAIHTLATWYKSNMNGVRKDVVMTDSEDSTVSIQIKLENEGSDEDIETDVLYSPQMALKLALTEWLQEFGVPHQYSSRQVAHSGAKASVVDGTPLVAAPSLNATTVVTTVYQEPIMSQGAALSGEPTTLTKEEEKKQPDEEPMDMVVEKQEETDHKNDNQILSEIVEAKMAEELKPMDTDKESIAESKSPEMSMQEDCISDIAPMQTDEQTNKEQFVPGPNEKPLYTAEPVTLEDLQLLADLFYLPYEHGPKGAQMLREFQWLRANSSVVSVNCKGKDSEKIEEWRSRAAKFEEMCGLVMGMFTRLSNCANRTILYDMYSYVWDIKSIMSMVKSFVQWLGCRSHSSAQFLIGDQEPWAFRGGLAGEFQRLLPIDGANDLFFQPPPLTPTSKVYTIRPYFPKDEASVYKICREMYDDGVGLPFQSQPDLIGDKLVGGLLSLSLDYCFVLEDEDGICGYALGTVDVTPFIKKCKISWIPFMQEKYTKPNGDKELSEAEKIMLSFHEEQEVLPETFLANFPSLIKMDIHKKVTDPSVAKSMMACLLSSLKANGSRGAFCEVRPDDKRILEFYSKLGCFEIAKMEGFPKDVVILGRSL

B1: OGA_(cryst) (D175N) (domain or fragment, human)
chain: FLCGVVEGFYGRPWVMEQRKELFRRLQKWELNTYLYAPKDDYKHRMFWREMYSVEEAEQLMTLISAAREYEIEFIYAISPGLDITFSNPKEVSTLKRKLDQVSQFGCRSFALLFDNIDHNMCAADKEVFSSFAHAQVSITNEIYQYLGEPETFLFCPTEYCGTFCYPNVSQSPYLRTVGEKLLPGIEVLWTGPKVVSKEIPVESIEEVSKIIKRAPVIWDNIHANDYDQKRLFLGPYKGRSTELIPRLKGVLTNPNCEFEANYVAIHTLATWYKSNMNGVRKDVVMTDSEDSTVSIQIKLENEGSDEDIETDVLYSPQMALKLALTEWLQEFGVPHQYSSRGGGGSGGGGSGGGGSVTLEDLQLLADLFYLPYEHGPKGAQMLREFQWLRANSSVVSVNCKGKDSEKIEEWRSRAAKFEEMCGLVMGMFTRLSNCANRTILYDMYSYVWDIKSIMSMVKSFVQWLGCRSHSSAQFLIGDQEPWAFRGGLAGEFQRLLPIDGANDLFFQ
B2: OGA_(cryst) (truncated hOGA, residues 60-704 with residues 401-552 replaced by a 15-residue glycine-serine linker) (domain or fragment, human)
chain: B1 chain with N116D

The conditions of data set [1]: in vivo; cited from earlier work.
In the data set “OGA_(cryst) (D175N)” the target is B1. In words: crystal structure.
Data set [2] concerns the target T1, full-length human O-GlcNAcase (hOGA). In words: glycopeptide competition assay.
The data set “crystal structure” concerns the molecule itself. In words: crystal structure.
The data set “AUC” deals with the molecule itself. In words: AUC.

Turning to `CCN=C1N[C@@H]2[C@@H](O)[C@H](O)[C@@H](CO)O[C@@H]2S1` [thiamet-G], the “blood–brain barrier crossing” value in data set [1] is “can cross the blood–brain barrier”.

On to Ac-QLWVDS(βGlcNAc)TPPPG [O-GlcNAcylated p53 peptide Ac-QLWVDS(O-GlcNAc)TPPPG], for which the binding result (with OGA_(cryst) (D175N); in data set [2]) was “binds” throughout.

On to B1, for which the binding result in “crystal structure” is listed as “binds”.

Consider B2, for which the “stoichiometry N” value in “AUC” was 2.
